Laboratory results: patent US20230348881

Columns and labels:
[1] = system: exemplary modified PPE proproteins
[2] = system: wild-type PPE proprotein as used in Example 2
Chain of wild-type PPE proprotein as used in Example 2 (chain, as listed by the source): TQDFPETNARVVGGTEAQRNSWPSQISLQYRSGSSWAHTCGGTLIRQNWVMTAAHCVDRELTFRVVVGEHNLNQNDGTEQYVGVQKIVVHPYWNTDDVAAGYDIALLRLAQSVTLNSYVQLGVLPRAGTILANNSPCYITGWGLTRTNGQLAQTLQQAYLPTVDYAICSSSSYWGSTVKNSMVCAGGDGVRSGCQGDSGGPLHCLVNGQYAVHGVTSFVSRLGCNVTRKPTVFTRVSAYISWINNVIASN

## purified trypsin
[1]
  catalytic activity after protease digestion (colorimetric substrate assay), FIG. 4B: catalytically-inactive after incubation with trypsin or no protease
[2]
  catalytic activity after protease digestion (colorimetric substrate assay), FIG. 4B: the wild-type PPE protein was catalytically-active after incubation with trypsin
  protease cleavage by SDS-PAGE and Coomassie blue staining: trypsin cleaved the wild-type PPE as a control
